The results in this text go back to US20190309079A1 (Regeneron, published 2019).

B1: H4H17319P2 (antibody, V domains shown)
VH: QVQLVESGGSVVQPGRSLRLSCAASGFTFSTYAMYWVRQTPGKGLEWVAVLYSDGSNKYYIDSVKGRFTISRDTSTNTLYLQMSSLRADDSALYYCARLNWDYWYFDLWGRGTLVTVSS
VL: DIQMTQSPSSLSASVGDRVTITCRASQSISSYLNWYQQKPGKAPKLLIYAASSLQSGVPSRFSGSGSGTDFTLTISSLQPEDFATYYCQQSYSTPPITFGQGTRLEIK
notes: also called REGN4461
B2: H4H18449P2 (antibody, human IgG4, V domains shown)
VH: EVQLVESGGGLVQPGGSLRLSCVASGFTFNKYDMHWVRQTTGKGLEWVSGIDTDGDTYYPGSVKGRFTISRENAENSLYLQMNGLRVGDTAVYYCARWPWSGFYGAFDIWGQGTMVTVSS
VL: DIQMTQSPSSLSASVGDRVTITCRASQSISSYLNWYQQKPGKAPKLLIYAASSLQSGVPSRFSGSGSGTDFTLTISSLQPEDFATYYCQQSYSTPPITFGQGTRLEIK
notes: human IgG4 Fc
B3: H4H18438P2 (antibody, V domains shown)
VH: QVQLVESGGGVVQPGRSLRLSCAASGFSFNTYGMHWVRQAPGKGLEWVTIIWYDGSIKYYADSVKGRFTISRDNSKNTLYLQMNSLRAEDTAVYYCARGGYSGYLYFDYWGQGTLVTVSS
VL: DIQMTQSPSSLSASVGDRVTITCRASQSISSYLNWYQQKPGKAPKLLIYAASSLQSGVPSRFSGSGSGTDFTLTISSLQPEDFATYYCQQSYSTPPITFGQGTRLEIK
B4: H4H18417P2 (antibody, V domains shown)
VH: QVQLVESGGGVVQPGRSLRLSCAASGFTFSTYGMHWVRQAPGKGLEWVSVISYDESNKYYADSVKGRFTISRDNSKNALYLQMNSLRNEDTAVYYCARDRPFGLVTGWFDPWGQGTLVTVSS
VL: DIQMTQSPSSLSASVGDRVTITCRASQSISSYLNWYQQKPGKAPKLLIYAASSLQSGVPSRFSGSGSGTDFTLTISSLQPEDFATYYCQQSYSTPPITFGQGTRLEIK
B5: H4H16650P2 (antibody, V domains shown)
VH: QVQLVESGGGVVQPGKSLRLSCVASGFTFSSDAMYWVRQAPGKGLEWVAVIYYDGNYQYYEDSVKGRFTISRDNSQNTLDLQMNSLRVDDTAVYFCARLNWDYWYLDLWGRGTLVTVSS
VL: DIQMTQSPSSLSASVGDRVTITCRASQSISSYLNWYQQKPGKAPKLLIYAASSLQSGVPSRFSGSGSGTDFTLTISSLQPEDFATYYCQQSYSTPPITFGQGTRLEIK
B6: H4H18446P2 (antibody, human IgG4, V domains shown)
VH: EVQLVESGGGLVQPGGSLRLSCAASGFTFSNYGMTWVRQAPGKGLEWVSAITGGGGSTYYSNSVKGRFTISRDNSKNTVYLRMNSVRAEDTAVYYCAKYKWNFVDDWGQGTTVTVSS
VL: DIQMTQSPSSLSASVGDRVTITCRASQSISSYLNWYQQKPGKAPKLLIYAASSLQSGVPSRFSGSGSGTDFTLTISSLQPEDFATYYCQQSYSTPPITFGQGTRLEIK
notes: human IgG4 Fc
B7: H4H16679P2 (antibody, V domains shown)
VH: QVQLVESGGGVVQPGRSLRLSCTASGFTFSSYAMYWVRQAPGKGLEWVSVIYYDGSYKYYADSVKGRFTISRDNSKNTLYLQMDSLRAEDTAVYYCASYNWNYWYFDFWGRGTLVTVSS
VL: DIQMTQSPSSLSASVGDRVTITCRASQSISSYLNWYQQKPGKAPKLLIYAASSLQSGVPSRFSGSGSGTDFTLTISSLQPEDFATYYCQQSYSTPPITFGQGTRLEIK
B8: H4H17321P2 (antibody, V domains shown)
VH: QVQLVESGGGVVQPGRSLRLSCEASGFSSSDNAMYWVRQAPGKGLEWVSVIYHDGSYKYYEDSVKGRFTIARDNSKNTLYLQMNSLRAEDTAVYYCARYNWNHWYFDVWGRGTLVTVSS
VL: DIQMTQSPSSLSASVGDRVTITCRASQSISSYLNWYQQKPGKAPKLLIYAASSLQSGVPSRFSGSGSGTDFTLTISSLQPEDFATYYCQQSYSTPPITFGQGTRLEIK
B9: H4H18445P2 (antibody, human IgG4, V domains shown)
VH: QVQLQESGPGLVKPSQTLSLTCTVSGGSISSGGDYWSWIRQLPGKGLEWIGYIYYSGSAYYNPSLKSRGTISIDTSKNQFSLKLTSVTAADTAVYFCVKLRFLEWFLGGWFGPWGQGTLVTVSS
VL: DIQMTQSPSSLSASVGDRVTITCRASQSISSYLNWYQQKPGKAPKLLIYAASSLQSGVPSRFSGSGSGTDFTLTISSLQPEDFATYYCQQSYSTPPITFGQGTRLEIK
notes: human IgG4 Fc

rat LEPR extracellular domain expressed with a C-terminal myc-myc-hexahistidine tag (rLEPR.mmh), sequence (Q62959 other isoform, or with tags, fused parts or gaps): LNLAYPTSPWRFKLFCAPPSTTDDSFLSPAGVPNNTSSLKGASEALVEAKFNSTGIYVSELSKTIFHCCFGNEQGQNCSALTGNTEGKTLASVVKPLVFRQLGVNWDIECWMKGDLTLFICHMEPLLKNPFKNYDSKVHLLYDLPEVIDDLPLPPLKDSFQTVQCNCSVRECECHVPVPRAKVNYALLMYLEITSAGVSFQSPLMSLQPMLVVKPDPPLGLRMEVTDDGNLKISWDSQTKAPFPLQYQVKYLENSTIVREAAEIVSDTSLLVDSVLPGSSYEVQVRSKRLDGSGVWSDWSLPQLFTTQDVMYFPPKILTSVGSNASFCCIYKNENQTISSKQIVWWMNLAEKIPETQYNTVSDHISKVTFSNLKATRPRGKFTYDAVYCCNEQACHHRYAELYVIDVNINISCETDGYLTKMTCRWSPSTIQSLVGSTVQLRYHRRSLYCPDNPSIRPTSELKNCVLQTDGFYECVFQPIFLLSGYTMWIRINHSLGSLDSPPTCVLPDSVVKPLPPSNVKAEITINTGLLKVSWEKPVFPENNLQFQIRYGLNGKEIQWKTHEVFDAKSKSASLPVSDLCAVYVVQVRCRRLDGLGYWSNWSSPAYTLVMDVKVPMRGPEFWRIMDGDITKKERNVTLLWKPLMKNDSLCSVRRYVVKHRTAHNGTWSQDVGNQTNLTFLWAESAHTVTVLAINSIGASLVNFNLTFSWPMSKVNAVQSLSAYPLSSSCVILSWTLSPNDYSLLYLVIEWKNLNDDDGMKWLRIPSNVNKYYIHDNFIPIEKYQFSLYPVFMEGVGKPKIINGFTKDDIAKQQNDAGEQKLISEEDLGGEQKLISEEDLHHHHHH
mouse LEPR extracellular domain expressed with a C-terminal myc-myc-hexahistidine tag (mLEPR.mmh), sequence (P48356 other isoform, or with tags, fused parts or gaps): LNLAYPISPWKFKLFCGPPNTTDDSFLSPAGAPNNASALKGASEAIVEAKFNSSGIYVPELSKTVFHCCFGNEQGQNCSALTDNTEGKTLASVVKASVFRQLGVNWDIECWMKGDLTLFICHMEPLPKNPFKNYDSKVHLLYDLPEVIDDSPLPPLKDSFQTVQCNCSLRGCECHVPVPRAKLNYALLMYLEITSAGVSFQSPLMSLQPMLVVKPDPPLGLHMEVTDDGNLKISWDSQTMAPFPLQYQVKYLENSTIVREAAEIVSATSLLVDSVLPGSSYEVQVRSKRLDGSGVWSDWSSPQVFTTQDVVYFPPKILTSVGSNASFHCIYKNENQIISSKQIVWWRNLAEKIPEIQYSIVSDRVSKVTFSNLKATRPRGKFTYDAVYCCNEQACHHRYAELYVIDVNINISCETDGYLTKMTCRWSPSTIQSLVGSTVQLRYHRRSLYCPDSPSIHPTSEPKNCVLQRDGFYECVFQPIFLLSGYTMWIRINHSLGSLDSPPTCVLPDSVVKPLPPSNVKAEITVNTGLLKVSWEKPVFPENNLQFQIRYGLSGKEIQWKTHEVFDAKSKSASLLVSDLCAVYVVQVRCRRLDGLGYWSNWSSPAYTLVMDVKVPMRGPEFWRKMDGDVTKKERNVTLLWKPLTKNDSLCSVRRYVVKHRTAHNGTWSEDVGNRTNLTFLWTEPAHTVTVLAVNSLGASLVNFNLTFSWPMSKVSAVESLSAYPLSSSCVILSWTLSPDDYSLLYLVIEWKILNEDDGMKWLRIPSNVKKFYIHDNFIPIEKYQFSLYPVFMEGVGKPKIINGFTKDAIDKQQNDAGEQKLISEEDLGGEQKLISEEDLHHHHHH

The first experiment concerns the target mouse LEPR extracellular domain expressed with a C-terminal myc-myc-hexahistidine tag (mLEPR.mmh) (mouse, UniProt P48356 22-839). Put plainly: SPR, captured mAb, 25C and 37C. Here is the method:
(§1) Equilibrium dissociation constants (KD values) for LEPR binding to purified anti-LEPR monoclonal antibodies were determined using a real-time surface plasmon resonance biosensor using a Biacore 4000 instrument. All binding studies were performed in 10 mM HEPES, 150 mM NaCl, 3 mM EDTA, and 0.05% v/v Surfactant Tween-20, pH 7.4 (HBS-ET) running buffer at 25° C. and 37° C. The Biacore sensor surface was first derivatized by amine coupling with a monoclonal mouse anti-human Fc antibody (GE, # BR-1008-39) to capture anti-LEPR monoclonal antibodies. […] Kinetic association (kₐ) and dissociation (kd) rate constants were determined by fitting the real-time binding sensorgrams to a 1:1 binding model with mass transport limitation using Scrubber 2.0c curve-fitting software. Binding dissociation equilibrium constants (KD) and dissociative half-lives (t½) were calculated from the kinetic rate constants as: […]
On the technique in general: Surface plasmon resonance follows binding to a sensor surface in real time, without labels.
As for B1, the binding result is “no binding (tested: 100 nM)”.
Regarding B2, the binding result is reported as “no binding (tested: 100 nM)”.
Same read-out and setting: next, B3: “no binding (tested: 100 nM)”.
Same read-out and setting: next, B4: “no binding (tested: 100 nM)”; B5: “no binding (tested: 100 nM)”; B6: “no binding (tested: 100 nM)”.
Regarding B7, the binding result is “no binding (tested: 100 nM)”.
Same read-out and setting: next, B8: “no binding (tested: 100 nM)”.
Take B9: the binding result is “no binding (tested: 100 nM)”.

Another experiment has as its target rat LEPR extracellular domain expressed with a C-terminal myc-myc-hexahistidine tag (rLEPR.mmh) (rat, UniProt Q62959 22-839). The experiment is described as follows: SPR, captured mAb, 25C and 37C. Here is the method: as §1
With B1, the binding result is on record as “no binding (tested: 100 nM)”.
On the same count and under the same terms, next, B2: “no binding (tested: 100 nM)”.
With B3, the binding result is listed as “no binding (tested: 100 nM)”.
The same measure, in the same setting: the entry for B4 is “no binding (tested: 100 nM)”.
On the same count and under the same terms, next, B5: “no binding (tested: 100 nM)”; B6: “no binding (tested: 100 nM)”; B7: “no binding (tested: 100 nM)”.
Still for that read-out and setting: the entry for B8 is “no binding (tested: 100 nM)”.
For B9, the binding result was “no binding (tested: 100 nM)”.

The next experiment has as its target T1, human LEPR CRH1-Ig (D2,D3)-MMH (human, UniProt P48357 230-427, limits assumed).
T1 construct: domain: CRH1-Ig (D2,D3)
T1 sequence (looked up): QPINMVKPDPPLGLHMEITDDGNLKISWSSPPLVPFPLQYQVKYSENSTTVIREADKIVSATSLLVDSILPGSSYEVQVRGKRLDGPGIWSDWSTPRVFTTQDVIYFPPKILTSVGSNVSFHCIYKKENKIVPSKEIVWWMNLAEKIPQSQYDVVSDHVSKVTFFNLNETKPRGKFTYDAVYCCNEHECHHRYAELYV
Put plainly: Luminex, myc-captured protein on beads. Here is the method: (§2) Aliquots of microspheres with immobilized anti-myc monoclonal antibodies, prepared as described above, were added individually to 1 mL of the each of these protein supernatants. The microspheres were gently mixed, incubated for two hours at 25° C., washed twice with 1 mL of DBPS, centrifuged to remove the supernatant and finally resuspended in 1 mL of DPBS buffer. […] of anti-myc IgG coupled microspheres from individual reactions with full length human LEPR and with each of the human LEPR domain proteins were withdrawn and mixed together in 3.6 mL of PBS+20 mg/mL BSA+0.05% sodium azide (blocking buffer).
(§3) From this mixed pool, 75 μL of microspheres were plated per well on a 96 well filter plate (Millipore, Cat. No: MSBVN1250) and mixed with 25 μL of individual anti-human LEPR monoclonal antibodies (0.5 or 5 μg/mL), incubated for two hours at 25° C. and then washed twice with 200 μL of DPBS with 0.05% Tween 20 (washing buffer). […] After 30 minutes, the samples were washed twice with 200 µL of washing buffer and resuspended in 150 μL of wash buffer. The Median Fluorescence intensity (MFI) of the microspheres was measured in a Luminex Analyzer.
B1: the “Luminex MFI” value turned out to be 14 MFI.
On to B2, for which the “Luminex MFI” value was found to be 42 MFI.
Regarding B3, the “Luminex MFI” value is 8880 MFI.
Same read-out and setting: next, B4: 5500 MFI.
The same measure, in the same setting: next, B5: 74 MFI.
For B7, the “Luminex MFI” value is 34 MFI.
As to B8, the “Luminex MFI” value amounted to 15 MFI.
On the same count and under the same terms, next, B9: 40 MFI.

Another experiment concerns the target T2, human LEPR Ig (D3)-MMH (human, UniProt P48357 340-427, limits assumed).
T2 construct: domain: Ig (D3)
T2 sequence (looked up): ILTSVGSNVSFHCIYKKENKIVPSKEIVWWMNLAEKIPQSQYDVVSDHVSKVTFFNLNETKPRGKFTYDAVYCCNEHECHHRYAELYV
Put plainly: Luminex, myc-captured protein on beads. The protocol: as §2, §3
For the molecule B1, the “Luminex MFI” value was determined as 8 MFI.
On the same count and under the same terms, next, B2: 24 MFI; B3: 30 MFI.
As for B4, the “Luminex MFI” value is 17 MFI.
The same measure, in the same setting: next, B5: 10 MFI; B6: 25 MFI; B7: 14 MFI.
Same read-out and setting: the figure for B8 is 7 MFI; for B9 it is 19 MFI.

A further experiment has as its target T3, human LEPR CRH2-MMH (human, UniProt P48357 428-634, limits assumed).
T3 construct: domain: CRH2
T3 sequence (looked up): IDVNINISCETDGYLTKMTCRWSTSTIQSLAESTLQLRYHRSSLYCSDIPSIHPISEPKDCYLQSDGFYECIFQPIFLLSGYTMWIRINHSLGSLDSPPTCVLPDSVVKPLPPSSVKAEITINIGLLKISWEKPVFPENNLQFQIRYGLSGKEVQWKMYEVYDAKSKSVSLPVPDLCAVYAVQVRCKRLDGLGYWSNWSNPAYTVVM
Put plainly: Luminex, myc-captured protein on beads. Here is the method: as §2, §3
Take B1: the “Luminex MFI” value was determined as 91 MFI.
Consider B2, for which the “Luminex MFI” value stood at 15 MFI.
Still for that read-out and setting: the figure for B4 is 39 MFI; for B5 it is 16 MFI.
Same read-out and setting: the figure for B6 is 65 MFI; for B7 it is 33 MFI; for B8 it is 116 MFI.
Still for that read-out and setting: the figure for B9 is 17 MFI.

A further experiment has as its target T4, extracellular domain of human LEPR (amino acids 22-839 of P48357, Isoform B) with N-terminal myc-myc tag, … (human, UniProt P48357 22-839, GPI anchor at the C-terminus).
T4 construct: also called HEK293/Mycx2-hLepR(Ecto)-GPI anchored cells
T4 sequence: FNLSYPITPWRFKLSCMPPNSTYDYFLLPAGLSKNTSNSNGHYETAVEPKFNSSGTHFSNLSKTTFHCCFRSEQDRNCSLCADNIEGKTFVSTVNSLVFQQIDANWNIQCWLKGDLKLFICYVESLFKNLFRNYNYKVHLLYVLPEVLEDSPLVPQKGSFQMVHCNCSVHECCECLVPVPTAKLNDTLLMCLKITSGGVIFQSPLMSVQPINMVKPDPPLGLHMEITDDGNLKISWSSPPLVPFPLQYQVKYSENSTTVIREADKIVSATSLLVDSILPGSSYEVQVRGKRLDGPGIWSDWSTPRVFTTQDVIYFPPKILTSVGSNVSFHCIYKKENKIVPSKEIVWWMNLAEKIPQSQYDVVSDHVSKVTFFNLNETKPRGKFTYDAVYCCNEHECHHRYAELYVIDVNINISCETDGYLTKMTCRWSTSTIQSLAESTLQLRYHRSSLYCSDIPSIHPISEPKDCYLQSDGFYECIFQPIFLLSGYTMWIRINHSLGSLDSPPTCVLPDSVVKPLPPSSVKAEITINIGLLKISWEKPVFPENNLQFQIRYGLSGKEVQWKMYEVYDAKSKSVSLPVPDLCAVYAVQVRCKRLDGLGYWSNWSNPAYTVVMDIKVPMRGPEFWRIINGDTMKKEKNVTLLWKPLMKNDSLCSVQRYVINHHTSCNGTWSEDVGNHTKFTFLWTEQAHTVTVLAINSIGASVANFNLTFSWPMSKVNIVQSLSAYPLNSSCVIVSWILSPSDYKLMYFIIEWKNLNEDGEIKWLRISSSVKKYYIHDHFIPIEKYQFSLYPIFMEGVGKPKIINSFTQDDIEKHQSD
Put plainly: FACS, 10 nM Ab, HEK293/hLEPR-GPI, 1 uM Leptin. The protocol: For the FACS analysis, HEK293 parental cells and HEK293/hLEPR-GPI cells were dissociated and plated onto 96-well v-bottom plates at 5×10⁵ cells/well in PBS containing 2% FBS (FACS buffer). […] Cells were subsequently fixed using BD CytoFix™ (Becton Dickinson, #554655), filtered, and analyzed on a HyperCyt Flow Cytometer (Beckman Coulter). Unstained and secondary antibody alone controls were also tested for all cell lines. The results were analyzed using ForeCyt (IntelliCyt) and FlowJo version 10 software to determine the geometric means of fluorescence for viable cells. The geometric mean of fluorescence for each sample was then normalized to the geometric mean of unstained cells to obtain relative binding per condition referred to as “binding ratios”, and these binding ratios were recorded for each antibody tested.
On the technique in general: Flow cytometry measures light scatter and fluorescence of single cells or particles in a stream.
As to B2, the “Binding Ratio (normalized to unstained)” value was 3110 fold.
Same read-out and setting: the figure for B3 is 2410 fold; for B4 it is 2600 fold.
Still for that read-out and setting: the figure for B5 is 3120 fold; for B7 it is 2220 fold; for B9 it is 2490 fold.
